Results published in PMC7496394.
Like-named read-outs stand apart in the source and are kept apart here. One block for each molecule: values may come before it.

Key:
[1] = target: recombinant and mature MDA1 (Arabidopsis thaliana) (UniProt F4JVI3); test: SEC
[2] = target: T1, rMDA1 (mature MDA1) (Arabidopsis thaliana, UniProt F4JVI3 44-493); test: EMSA
T1 sequence: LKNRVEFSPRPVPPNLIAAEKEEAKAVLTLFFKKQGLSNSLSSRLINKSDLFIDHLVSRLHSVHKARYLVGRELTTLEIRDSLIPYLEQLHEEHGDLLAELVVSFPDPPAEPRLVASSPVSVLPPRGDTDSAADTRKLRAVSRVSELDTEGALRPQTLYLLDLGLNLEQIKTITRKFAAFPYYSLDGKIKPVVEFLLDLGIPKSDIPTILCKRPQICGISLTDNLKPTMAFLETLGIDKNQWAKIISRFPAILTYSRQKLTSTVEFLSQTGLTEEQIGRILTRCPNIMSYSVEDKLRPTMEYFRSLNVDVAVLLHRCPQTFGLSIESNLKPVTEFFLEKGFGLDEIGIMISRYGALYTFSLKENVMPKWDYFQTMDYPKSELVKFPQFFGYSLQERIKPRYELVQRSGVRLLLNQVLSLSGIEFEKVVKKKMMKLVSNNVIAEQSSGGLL

[3] = target: T1, rMDA1 (mature MDA1); test: EMSA; remark: listed apart in the source
[4] = target: T1, rMDA1 (mature MDA1); test: EMSA; remark: listed apart in the source
[5] = target: T1, rMDA1 (mature MDA1); test: EMSA; remark: listed apart in the source
[6] = target: T1, rMDA1 (mature MDA1); test: EMSA; remark: listed apart in the source

stoichiometry N [1]: 2
Molecule: recombinant and mature MDA1 (from UniProt F4JVI3 130-493) (domain or fragment)

B1: ssDNA random probe (ssDNA)
DNA: GATATGCGCGAATTCCTGTAGAACGAACACTAGAAGAAA
binding result [2]: no binding

B2: dsDNA random probe (dsDNA)
DNA 1: B1 DNA
DNA 2: TTTCTTCTAGTGTTCGTTCTACAGGAATTCGCGCATATC
binding result [3]: binds

B3: 5' psbE sRNA (ssRNA)
RNA: GUAGACUCUAAAAAUACCCUUGGUACUUU
binding result [4]: no binding

B4: 3' ndhA sRNA (ssRNA)
RNA: GUUUUAAACAAGAGACAGAAACAAAGA
binding result [4]: no binding

B5: psbE E4 (dsDNA)
DNA 1: ATTGACGATCTCACAAAGATGCAATCT
DNA 2: AGATTGCATCTTTGTGAGATCGTCAAT
binding result [5]: binds

B6: psbE E5 (dsDNA)
DNA 1: TTAATTTACTTATTCATCTTTTACAGA
DNA 2: TCTGTAAAAGATGAATAAGTAAATTAA
binding result [5]: no binding

B7: ndhA A10 (dsDNA)
DNA 1: TATTGGGAATCATAACAGGTGTACTAG
DNA 2: CTAGTACACCTGTTATGATTCCCAATA
binding result [5]: binds

B8: 5' ndhA sRNA (ssRNA)
RNA: UGGCUGAUAUUAUGACGAUAC
binding result [4]: no binding

B9: 3' psbJ sRNA (ssRNA)
RNA: UCUGAUUCGAGGGGGUCCCGUUGAAC
binding result [4]: no binding

B10: ssRNA random probe (ssRNA)
RNA: GAUAUGCGCGAAUUCCUGUAGAACGAACACUAGAAGAAA
binding result [6]: binds

B11: dsRNA random probe (dsRNA)
RNA 1: B10 RNA
RNA 2: UUUCUUCUAGUGUUCGUUCUACAGGAAUUCGCGCAUAUC
binding result [2]: no binding
